Reference: article PMC5780510, “Insights into the molecular mechanism of dehalogenation catalyzed by D-2-haloacid dehalogenase from crystal structures” (Scientific Reports, 2018)

Biological target: the molecule itself
Test: crystal structure; hanging-drop vapour diffusion, 0.1 M MES pH 6.43, 4% PEG20000, 10% PEG8000, potassium sodium tartrate, 277 K; four monomers in each asymmetric unit

B1: D-2-haloacid dehalogenase HadD AJ1 from Pseudomonas putida AJ1/23, wild type (enzyme)
chain: MNLPDNSIHLQLPRPVCEAIIRPVPEHRADQELSEIYRDLKATFGVPWVGVITQAVAYYRPFFAEAWRRFAPSAKTHFFERASDDIRIRSWELMGQSFVIEGQTDRLREMGYSVREIGQIRAVLDIFDYGNPKYLIFATAIKEGLLSGRTFGGAAGDARCHFPRSPICQIDPIPVMVEEHHAGGTLSQVYADIKQTLQLPFINSDYKAMARWPSYLEQAWGALKPCIDTPAYQAGRFDINARALAALDALPTAYRMSRDDALQAGLSEAQTDELIQVISLFQWMLSGLVLNVTHFKQQALK
notes: D-2-haloacid dehalogenase HadD AJ1, Pseudomonas putida strain AJ1/23; the 909 bp hadd aj1 gene (ENA AAA25831.1) subcloned into pET-28a between NcoI and XhoI; Homotetramer in the crystal; it gives no residue limits; also called WT; D-DEX
  stoichiometry N: 4
